Experimental data published in the supplement of paper PMC9876800.

Test system: peptide library, one residue held at a place counted from the S/T acceptor
Assay: relative phosphorylation of the sub-library (ratio to the mean residue at this position); human; higher = residue favoured
How it was run: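 Each biotinylated degenerate peptide sub-library fixed one residue at one position around a central Ser/Thr and was incubated with a purified recombinant kinase, a human or orthologue construct, in 384-well plates. The 90 min reactions, under kinase-specific conditions, contained 50 μM peptide and 50 μM ATP spiked with γ-32P-ATP. Phosphorylation was read by phosphorimaging spots on streptavidin membranes and quantifying them by densitometry. Relative sub-library phosphorylation expresses each value as a ratio to the mean residue at that position.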

PKN2, construct: aa501-984 (from UniProt Q16513)
relative phosphorylation (A fixed, at +1): 0.532 | relative phosphorylation (A fixed, at +2): 0.768 | relative phosphorylation (A fixed, at +3): 0.837 | relative phosphorylation (A fixed, at +4): 0.925 | relative phosphorylation (A fixed, at -1): 0.905 | relative phosphorylation (A fixed, at -2): 1.1 | relative phosphorylation (A fixed, at -3): 0.867 | relative phosphorylation (A fixed, at -4): 1.11 | relative phosphorylation (A fixed, at -5): 0.963 | relative phosphorylation (D fixed, at +1): 0.318 | relative phosphorylation (D fixed, at +2): 0.322 | relative phosphorylation (D fixed, at +3): 0.543 | relative phosphorylation (D fixed, at +4): 0.614 | relative phosphorylation (D fixed, at -1): 0.962 | relative phosphorylation (D fixed, at -2): 0.35 | relative phosphorylation (D fixed, at -3): 0.321 | relative phosphorylation (D fixed, at -4): 0.59 | relative phosphorylation (D fixed, at -5): 0.503 | relative phosphorylation (E fixed, at +1): 0.293 | relative phosphorylation (E fixed, at +2): 0.32 | relative phosphorylation (E fixed, at +3): 0.545 | relative phosphorylation (E fixed, at +4): 0.609 | relative phosphorylation (E fixed, at -1): 0.719 | relative phosphorylation (E fixed, at -2): 0.357 | relative phosphorylation (E fixed, at -3): 0.347 | relative phosphorylation (E fixed, at -4): 0.669 | relative phosphorylation (E fixed, at -5): 0.522 | relative phosphorylation (F fixed, at +1): 2.82 | relative phosphorylation (F fixed, at +2): 0.467 | relative phosphorylation (F fixed, at +3): 0.753 | relative phosphorylation (F fixed, at +4): 0.535 | relative phosphorylation (F fixed, at -1): 0.602 | relative phosphorylation (F fixed, at -2): 0.671 | relative phosphorylation (F fixed, at -3): 0.464 | relative phosphorylation (F fixed, at -4): 0.749 | relative phosphorylation (F fixed, at -5): 0.806 | relative phosphorylation (G fixed, at +1): 0.43 | relative phosphorylation (G fixed, at +2): 0.554 | relative phosphorylation (G fixed, at +3): 0.938 | relative phosphorylation (G fixed, at +4): 1.17 | relative phosphorylation (G fixed, at -1): 1.32 | relative phosphorylation (G fixed, at -2): 0.949 | relative phosphorylation (G fixed, at -3): 0.823 | relative phosphorylation (G fixed, at -4): 1.19 | relative phosphorylation (G fixed, at -5): 1.04 | relative phosphorylation (H fixed, at +1): 0.805 | relative phosphorylation (H fixed, at +2): 1.63 | relative phosphorylation (H fixed, at +3): 1.22 | relative phosphorylation (H fixed, at +4): 1.25 | relative phosphorylation (H fixed, at -1): 1.16 | relative phosphorylation (H fixed, at -2): 1.43 | relative phosphorylation (H fixed, at -3): 1.49 | relative phosphorylation (H fixed, at -4): 1.16 | relative phosphorylation (H fixed, at -5): 0.946 | relative phosphorylation (I fixed, at +1): 1.34 | relative phosphorylation (I fixed, at +2): 0.836 | relative phosphorylation (I fixed, at +3): 0.888 | relative phosphorylation (I fixed, at +4): 0.877 | relative phosphorylation (I fixed, at -1): 0.514 | relative phosphorylation (I fixed, at -2): 0.569 | relative phosphorylation (I fixed, at -3): 0.514 | relative phosphorylation (I fixed, at -4): 0.861 | relative phosphorylation (I fixed, at -5): 1.45 | relative phosphorylation (K fixed, at +1): 1.33 | relative phosphorylation (K fixed, at +2): 2.49 | relative phosphorylation (K fixed, at +3): 1.85 | relative phosphorylation (K fixed, at +4): 1.94 | relative phosphorylation (K fixed, at -1): 1.66 | relative phosphorylation (K fixed, at -2): 2.17 | relative phosphorylation (K fixed, at -3): 2.37 | relative phosphorylation (K fixed, at -4): 1.82 | relative phosphorylation (K fixed, at -5): 1.43 | relative phosphorylation (L fixed, at +1): 1.25 | relative phosphorylation (L fixed, at +2): 0.927 | relative phosphorylation (L fixed, at +3): 0.946 | relative phosphorylation (L fixed, at +4): 0.785 | relative phosphorylation (L fixed, at -1): 0.833 | relative phosphorylation (L fixed, at -2): 0.571 | relative phosphorylation (L fixed, at -3): 0.61 | relative phosphorylation (L fixed, at -4): 0.804 | relative phosphorylation (L fixed, at -5): 1.34 | relative phosphorylation (M fixed, at +1): 1.84 | relative phosphorylation (M fixed, at +2): 0.788 | relative phosphorylation (M fixed, at +3): 0.839 | relative phosphorylation (M fixed, at +4): 0.804 | relative phosphorylation (M fixed, at -1): 0.825 | relative phosphorylation (M fixed, at -2): 0.852 | relative phosphorylation (M fixed, at -3): 0.643 | relative phosphorylation (M fixed, at -4): 0.928 | relative phosphorylation (M fixed, at -5): 0.723 | relative phosphorylation (N fixed, at +1): 0.75 | relative phosphorylation (N fixed, at +2): 1.02 | relative phosphorylation (N fixed, at +3): 0.861 | relative phosphorylation (N fixed, at +4): 0.994 | relative phosphorylation (N fixed, at -1): 1.37 | relative phosphorylation (N fixed, at -2): 1.13 | relative phosphorylation (N fixed, at -3): 0.736 | relative phosphorylation (N fixed, at -4): 0.938 | relative phosphorylation (N fixed, at -5): 0.78 | relative phosphorylation (P fixed, at +1): 0.252 | relative phosphorylation (P fixed, at +2): 0.471 | relative phosphorylation (P fixed, at +3): 0.557 | relative phosphorylation (P fixed, at +4): 1.2 | relative phosphorylation (P fixed, at -1): 1.06 | relative phosphorylation (P fixed, at -2): 0.538 | relative phosphorylation (P fixed, at -3): 0.681 | relative phosphorylation (P fixed, at -4): 0.831 | relative phosphorylation (P fixed, at -5): 0.99 | relative phosphorylation (Q fixed, at +1): 0.82 | relative phosphorylation (Q fixed, at +2): 0.758 | relative phosphorylation (Q fixed, at +3): 0.998 | relative phosphorylation (Q fixed, at +4): 0.998 | relative phosphorylation (Q fixed, at -1): 1.04 | relative phosphorylation (Q fixed, at -2): 1.11 | relative phosphorylation (Q fixed, at -3): 0.898 | relative phosphorylation (Q fixed, at -4): 1.09 | relative phosphorylation (Q fixed, at -5): 0.89 | relative phosphorylation (R fixed, at +1): 1.44 | relative phosphorylation (R fixed, at +2): 3.42 | relative phosphorylation (R fixed, at +3): 2.22 | relative phosphorylation (R fixed, at +4): 1.7 | relative phosphorylation (R fixed, at -1): 1.71 | relative phosphorylation (R fixed, at -2): 2.83 | relative phosphorylation (R fixed, at -3): 4.31 | relative phosphorylation (R fixed, at -4): 1.59 | relative phosphorylation (R fixed, at -5): 1.84 | relative phosphorylation (V fixed, at +1): 0.927 | relative phosphorylation (V fixed, at +2): 0.8 | relative phosphorylation (V fixed, at +3): 0.875 | relative phosphorylation (V fixed, at +4): 0.787 | relative phosphorylation (V fixed, at -1): 0.74 | relative phosphorylation (V fixed, at -2): 0.752 | relative phosphorylation (V fixed, at -3): 0.512 | relative phosphorylation (V fixed, at -4): 0.985 | relative phosphorylation (V fixed, at -5): 1.23 | relative phosphorylation (W fixed, at +1): 0.855 | relative phosphorylation (W fixed, at +2): 0.536 | relative phosphorylation (W fixed, at +3): 0.979 | relative phosphorylation (W fixed, at +4): 0.987 | relative phosphorylation (W fixed, at -1): 0.775 | relative phosphorylation (W fixed, at -2): 0.801 | relative phosphorylation (W fixed, at -3): 0.661 | relative phosphorylation (W fixed, at -4): 0.871 | relative phosphorylation (W fixed, at -5): 0.723 | relative phosphorylation (Y fixed, at +1): 0.997 | relative phosphorylation (Y fixed, at +2): 0.885 | relative phosphorylation (Y fixed, at +3): 1.15 | relative phosphorylation (Y fixed, at +4): 0.825 | relative phosphorylation (Y fixed, at -1): 0.811 | relative phosphorylation (Y fixed, at -2): 0.82 | relative phosphorylation (Y fixed, at -3): 0.742 | relative phosphorylation (Y fixed, at -4): 0.809 | relative phosphorylation (Y fixed, at -5): 0.824 | relative phosphorylation (pThr fixed, at +1): 1.05 | relative phosphorylation (pThr fixed, at +2): 1.15 | relative phosphorylation (pThr fixed, at +3): 0.818 | relative phosphorylation (pThr fixed, at +4): 0.683 | relative phosphorylation (pThr fixed, at -1): 0.799 | relative phosphorylation (pThr fixed, at -2): 0.836 | relative phosphorylation (pThr fixed, at -3): 0.743 | relative phosphorylation (pThr fixed, at -4): 1.11 | relative phosphorylation (pThr fixed, at -5): 0.683 | relative phosphorylation (pTyr fixed, at +1): 0.572 | relative phosphorylation (pTyr fixed, at +2): 0.884 | relative phosphorylation (pTyr fixed, at +3): 0.864 | relative phosphorylation (pTyr fixed, at +4): 0.666 | relative phosphorylation (pTyr fixed, at -1): 0.856 | relative phosphorylation (pTyr fixed, at -2): 0.711 | relative phosphorylation (pTyr fixed, at -3): 0.977 | relative phosphorylation (pTyr fixed, at -4): 0.741 | relative phosphorylation (pTyr fixed, at -5): 0.863
